A short description of the data set: label from the status in PepcDB records.
For “MSSQTILSVNNLSVSFTTNDGIVDAVKNVSFELQAGETLSIVGESGSGKSVSTNALMTLLPDNAIVHPDSSIMFEGESILDKTERQMQRIRGDRIGMIFQEPMTSLNPYMRVGIQVAEAMMCHRSVNQRKAKERVLELFDLVHLPNPQQAYDKYPHEFSGGQLQRIMIAMALINEPDILIADEPTTALDVTVQAEVLLLIKEIQAKMGMAILFITHDLGVVKHFADRVLVMCKGEVVEEGITEHLFSEPQHEYTKMLINSIPKGSKTPVDEKASELLNAEDIR”, the protein production result is reported as “not failed”.

Turning to “MSSRLARFALSGYRIAGIAAYPFARPYLSYRAAKGKEDKRRRLERFGYASAERPRGPLVWFHAASVGETLALIPLIREIRKRDIFVLLTTGTVTSAELTRTRLGDDVIHQYVPLDIKIAVNRFLTYWAPDAAITAESEIWPVTMMELERRHIPQIRVNARLSDRSFDRWKARHDIAESLFSKLALVVAQSDLDAERFRDLGSWPVVISGNLKGDTDPPPCDEALLESYRKQVGNRKTWAAISTFDGEEKAAATVHAAIKSRNGQLTIIVPRHPERGDDVEAMLKGMNLSVARRSRNDVITPGTDIFLGDSIGEMGLYLRLTELAFVGRSLTAEGGQNPLEPAMLGCAVLSGAHVQNFREAYQKLIRAGGGRIIRDVEMLAKAVHYLLVNDNERYKMIDAGNRVIQDMRGALSSTVKALEPYINPLTVSAKLQPRSAIGSWLEHHHHHH”, the protein production result was “failed”.

With “MSSSDGKLRYDGRVAVVTGAGAGLGREYALLFAERGAKVVVNDLGGTHSGDGASQRAADIVVDEIRKAGGEAVADYNSVIDGAKVIETAIKAFGRVDILVNNAGILRDRSLVKTSEQDWNLVNDVHLKGSFKCTQAAFPYMKKQNYGRIIMTSSNSGIYGNFGQVNYTAAKMGLIGLANTVAIEGARNNVLCNVIVPTAASRMTEGILPDILFNELKPKLIAPVVAYLCHESCEDNGSYIESAAGWATKLHMVRGKGAVLRPSLDDPVTIEYVKDVWSNVTDMSKAKHLGAIAEASGTLLEVLEKLKEGGGDAIEDAFEFNSKELITYALGIGASVKNAKDMRFLYENDADFAAIPTFFVLPGLLLQMSTDKLLSKALPNSQVDFSNILHGEQYLEIVDDLPTSGTLLTNGKVFDVMDKGSGAVVVTNSESFDESGRLLVRNQSTTFIVGAGKFGGKKDPIAGVVPLQPAPNRQPDATVQYTTSEDQAALYRLSGDKNPLHIDPQMALLAGFKTPILHGLCTLGFSVRAVLAQFADNNPALFKAVKVRFSGPVIPGQTLRVDLWKQGTRINFRTVVVETGKEVISGAYVDLKSSQAKL”, the protein production result is “failed”.

Take “MSSSDIFIGETIGTAVLILLGGGVCAAVTLKASKARNAGWLAITFGWGFAVLTAVYISAPLSGAHLNPAVTLALAIKDNDWSNVPTYWAGQLLGAMIGAALVWVAYYGQFHAHLTDHEIVGGPGAQATKTKAVEAQETGAGPVLGVFSTGPEVRNVVQNLATEIIGTVVLVLAILTQGLNDNGNGLGTIGALITSLVVVSIGLSLGGPTGYAINPARDLGPRIVHALLPLPNKGGSDWSYAWIPVVGPLIGAAIAAGIYNVAFA”: the protein production entry is listed as “failed”.

As to “MSSSIEIFPDSDILVAAAGKRLVGAIGAAVAARGQALIVLTGGGNGIALLRYLSAQAQQIEWSKVHLFWGDERYVPEDDDERNLKQARRALLNHVDIPSNQVHPMAASDGDFGGDLDAAALAYEQVLAASAAPGDPAPNFDVHLLGMGPEGHINSLFPHSPAVLESTRMVVAVDDSPKPPPRRITLTLPAIQRSREVWLLVSGPGKADAVAAAIGGADPVSVPAAGAVGRQNTLWLLDRDAAAKLPS”, the protein production result is given as “not failed”.

As to “MSSSLDLAPELSVASTHPASTLAGHQPDLVLSPRLHNRDLAPTRMEGRRWGGYSIFALWTNDVHNIANYSFAMGLFALGLGGWQILLSLAIGAALVYFFMNLSGYMGQKTGVPFPVISRIAFGIHGAQIPALIRAVIAIAWFGIQTYLASVVLRVLLTAVWPQIAAYDHDSILGLSSLGWVCFVSIWLVQLVILAYGMEMVRRYEAFAGPVILLTVAALAVFMYFKADARIAWSVATPLTGYEMWRNIFAGGALWLAIYGTLVLNFCDFARSSPCRKTIRVGNFWGLPVNILVFAVITVVLCGAQFQINGQIIDSPTQIVAAIPSTPFLVLGCLAFLIVTVAVNIMANFVAPAFVLSNLAPRHLNFRRAGLISATLAVLILPWNLYNSPLVIVYFLSGLGALLGPLYGVIMSDYWLLRKGCINVPELYTEHPAGAYHYSKGINLRAVAAFVPAALLAIVLALVPNFQGIAPFSWLIGAGIAAALYLLIAPRNRHYHDVSGECIAVDHSGH”, the protein production result is given as “failed”.

“MSSSPEKKRRKKLSPESNSLPNDLIVTILARLSQSYYPKLSLVSKTFRAILASPELYQTRILLSRTETFLYVCLSFPGEPNPGWFTLYRKPNQTLTTKKKKNSVHLLAPILNSPPVEFPSLIAVGSYLYAFRAAIEEGTSDSLNCVEVYNTDTQTWIPVPPNKRIFKLQHMKGMLYMKVSKLLSFVAQDAEELAPLFPKLRSLLSTEVVAFKPKVSEGYEVLGFSVNTDLGRGSFCMIEEITYHYDPSVKFRWRRRQGGVWRSLVGLEGLPKFARYSSVKLADCGGKLVVLWHKYVPASGYEEKMVWCAEISLEKRSKKEIWGKIEWFDAVLRVPKYYQFVGAKSATV”: the protein production entry was “failed”.

With “MSSSSPGEPLEPTDQDLDVLLKNLGNLVTPMALRVAATLRLVDHLLAGADTLAGLADRTDTHPQALSRLVRHLTVVGVLEGGEKQGRPLRPTRLGMLLADGHPAQQRAWLDLNGAVSHADLAFTGLLDVVRTGRPAYAGRYGRPFWEDLSADVALADSFDALMSCDEDLAYEAPADAYDWSAVRHVLDVGGGNGGMLAAIALRAPHLRGTLVELAGPAERARRRFADAGLADRVTVAEGDFFKPLPVTADVVLLSFVLLNWSDEDALTILRGCVRALEPGGRLLVLDRADVEGDGADRFFSTLLDLRMLTFMGGRVRTRDEVVDLAGSAGLALASERTSGSTTLPFDFSILEFTAVSEEAAPAAQASEALPAQE”, the protein production result is recorded as “not failed”.

On to “MSSSSPSGSGSDLTERRGIPAAKFIQDVETYLSQSGLDPNSALAFHQERLQQYKVVEMKLLAQQRDLQAKIPDIEKCLEVVATLEAKKGTGEALLADFEVSEGIYSRACIEDTDSVCLWLGANVMLEYSCEEASALLKNNLENAKASLEVLVADLQFLRDQVTVTQVTIARVYNWDVHQRRVKQVTPTAIAVADS”, for which the protein production result was “failed”.

Take “MSSTASSVFADETLLFEPATPIANAVPLIFAFPNEYSVGITSLGFQIVWATLAARSDLQVSRLFTDIAEPLPRQPELLGFSLSWELDYVNILAMLEQLGIPLRSRDRGDEHPLVFGGGPTLTANPEPFADFFDVILVGDGEVLLDAFIDAYQPLRDRPRAEKLRQLAQVPGLYIPALYEPIYEAADGAIATIQPIDNDIPVQIEKQTYRGNVLSASTVVTPRAAWESIYMVEVVRSCPEMCRFCLASYLTLPFRTASLEESLQPAIARGLTATQRIGLLGASVTQHPEFPALLDRLGQPEFTDVRLSVASVRTNTVTEKFASILAQRGTKSLTIAVESGSERLRQVINKKLAQAEITEAAVNAKAGGLQGLKLYGMAGVPTETEDDLLATAEMLKGLKKAAPGLRLSYGCSTFVPKAQTPFQWQGVSPKAEKRLQFLQKQLRPQGIEFRPESYSWSVIQALISRGDRRLSSLLERVRHYGESLGSYRRAFKELKGTLPPLDFYVFQDWEPEAPLPWQHLRGPLPVETLRKHRQQAFAIAAAGVGSK”: the protein production entry is recorded as “failed”.

On to “MSSTPATPAISPTQQSALALWRMRLITLLPLGAIAWISMVLADHPAIAHYGLSALTLAMGAGMVAANTMPKHWLAPLAPGMQFARHHLLRLGVALYGLRLTFGAIAALGVGGVVVPLTMLVATLLFGTWVGSSFFGLSRREAILVSAGSAVCGAAAAIAVSSVVRTDDRQTAVAVATVVLFGTVGMLLYPWLYELATQHWHLAISERSFGIFTGATLHEVAQVIASGKMVSDGAADAAVVAKMVRVLALGPLLLVMALWPRTSWSQASGGSRNLHGLLRSVPWFALGFVAVMALNSAQMVPADWKPALIGFDNWMLACAMLAIGLHTRIGDLLRAGRKPLALAGVLFLFLMVVGAALCALLV”, for which the protein production entry was “failed”.

The values are drawn from a protein production outcome set (Wang et al. 2014).
